Assay results taken from US12448436B2, “Antibody specifically binding to GRP94 or antigen-binding fragment thereof, and uses thereof” (KOOKMIN UNIVERSITY INDUSTRY ACADEMY COOPERATION FOUNDATION, priority 2020, dated 2025).
“Also recorded” adds a separate entry of the source.

Key:
[1] = target: T1, recombinant human GRP94 (Homo sapiens, UniProt P14625); experiment: ELISA binding to recombinant human GRP94; conditions: high specificity stated for human and rat antigens
T1 construct: made in house; host or cells: Expi293 cells (pcDNA 3.4)
Method: (§1) Each well of 96-well plates was coated with 0.1 μg of recombinant human GRP94 (rhGRP94), blocked with 3% (w/v) bovine serum albumin (BSA) in phosphate buffered saline (PBS) for 2 hours at 37° C., and incubated with 100 μL of GRP94 targeting IgG (20 μg/mL) for 2 hours at 37° C. The plates were washed thrice with 0.05% PBS-T, and 100 μL of a 500:1 dilution of the secondary antibody anti-human Fc Ab (Sigma-Aldrich) was added to each well. Incubation at 37° C. for 1 hour was followed by three rounds of washing with 0.05% PBS-T. Then, 100 μL of 3,3′,5,5′-tetramethylbenzidine (1-step ultra TMB) substrate solution was added to each well. Finally, optical densities were measured at 450 nm using a microplate reader (Synergy H1, BioTek).
The four GRP94 IgGs (B5, E5, 2H5, and 3G7) of the present disclosure were measured for equilibrium dissociation constant (KD). In this regard, each well of 96-well plates was coated with 100 ng of rhGRP94 and blocked with 3% (w/v) bovine serum albumin (BSA) in PBS at 37° C. for 2 hours. Next, the plates were incubated with a concentration gradient of 0 nM to 500 nM of each clone for the GRP94 IgGs at 37° C. for 2 hours. The use of a secondary antibody and the measurement of optical density were conducted as described for the ELISA.
(§2) After 96-well plates were coated with BSA, recombinant human GRP94, recombinant rat GRP94, and recombinant monkey GRP94, their binding affinity for each antibody (B5, E5, 2H5, or 3G7) was measured by ELISA.

[2] = target: recombinant rat GRP94 (Rattus norvegicus, UniProt Q66HD0); experiment: ELISA binding to recombinant rat GRP94; conditions: high specificity stated for human and rat antigens
Method: as §1, §2

[3] = target: recombinant monkey GRP94 (Macaca fascicularis, UniProt Q4R520); experiment: ELISA binding to recombinant monkey GRP94
Method: as §1, §2

[4] = tested on: HCT8 cells; experiment: In vitro CRC proliferation assay, HCT8; format: cell-based, human; conditions: 20 μg/mL; for cell index at the end point: 72 hours, MOCK 4.8±0.25; for cell growth inhibitory ability: end point, relative to the control PBS
Method: (§3) The four anti-GRP94 human IgG antibodies B5, E5, 2H5, and 3G7 of the present disclosure were examined in vitro for effect on CRC cell proliferation. […] The culture medium was removed by suction and the cells were washed with 10 mL of phosphate buffered saline (hereinafter PBS). After removal of PBS by suction, the cells were treated 2 mL of TrypLE Express Enzyme at 37° C. for 3 minutes in a 5% CO2 incubator. Thereafter, the cells were added with 8 mL of the culture medium, transferred to 15-mL tube, and centrifuged at 500×g for 5 minutes. After removal of the supernatant, the cells were suspended in the culture medium. From a small portion of the cell suspension, the cells were counted using the Countess II Automated Cell Counter. […] The 96-well plates were mounted on the Incucyte Zoom system. With the microscope magnification set at 4×, images were collected at intervals of 2 hours for 72 hours. From the collected images, cell growth was monitored using the IncuCyte FLR live content imaging system (Essen Bioscience, Ann Arbor, MI, USA).

[5] = tested on: HT29 cells; experiment: In vitro CRC proliferation assay, HT29; format: cell-based, human; conditions: 20 μg/mL; for cell index at the end point: 72 hours, MOCK 2.94±0.04; for cell growth inhibitory ability: end point, relative to the control PBS
Method: as §3

[6] = tested on: LoVo cells; experiment: In vitro CRC proliferation assay, LoVo; format: cell-based, human; conditions: 20 μg/mL; for cell index at the end point: 72 hours, MOCK 3.76±0.19; for cell growth inhibitory ability: end point, relative to the control PBS
Method: as §3

[7] = target: T2, rhGRP94 CTD fragment (part 4, Glu 602-Glu 799) (Homo sapiens, UniProt P14625); experiment: Epitope comparison ELISA, rhGRP94 fragment part 4; format: binding; conditions: antibody 1 μg/mL, 100 ng fragment
T2 construct: Part; 4 (Glu 602-Glu 799) of the human GRP94 gene (Gene ID: 7184); made in house; host or cells: Expi293 expression system (pcDNA 3.4)
Description: To determine which portion (or domain) of the GRP94 protein is bound by the developed antibodies, GRP94 fragments part. 1 and part. 4 were constructed wherein part. 1 was composed of the N-terminal domain (NTD), the Ca^2+ binding domain, the middle domain (MD), and the C-terminal domain (CTD) while part. 4 was derived from part. 1 by cutting off the NTD, the Ca^2+ binding domain, and the MD. In brief, Part. 1 (Asp 22-Glu 799) and Part. 4 (Glu 602-Glu 799) of the human GRP94 gene (Gene ID: 7184) were synthesized and subcloned into pcDNA 3.4 (Invitrogen) mammalian expression vector to finally recombinant DNAs. Using the Expi293 expression system (Invitrogen), the proteins were expressed and purified. The purified antigens part. 1 and part. 4 were analyzed for molecular weight by SDS-PAGE.
Next, ELISA was carried out to examine whether the four antibodies of the present disclosure bind to part 1 and part 4. First, 100 ng of each of the rhGRP94 fragment parts 1 and 4 was fixed to a high binding plate by incubation at 4° C. for 14 hours (overnight binding, 14 hrs). The same amount of BSA was used as a negative control. Then, the plate was blocked with 3% BSA, followed by incubation at 37° C. for 2 hours with 100 μL containing each of the anti-GRP94 antibodies (B5, E5, 2H5, and 3G7) of the present disclosure at a density of 1 μg/mL. After three rounds of washing with PBS-T, the plate was treated at 37° C. for 1 hour with a 5000:1 dilution of anti-Fc-HRP (Catalog #31423 Invitrogen). Color development was induced using 1-step-ultra TMB (Invitrogen) for 10 minutes and then terminated with […] (2N). Absorbance at 450 nm was read.

[8] = tested on: HCT116 subcutaneous xenograft; experiment: Tumor growth inhibition by sole administration, colorectal xenograft model; format: in vivo, Balb/c nude mice; conditions: 10 mg/kg intravenous twice per week for six weeks; for tumor growth inhibition compared to PBS: n=9
Description: For use in assaying in-vivo efficacy of the four antibodies of the present disclosure, a subcutaneous xenograft mouse model was established by injecting the metastatic colorectal cancer cell line HCT116 (5×10^6 cells) into 6-week-old Balb/c nude mice.

[9] = In vivo hepatotoxicity and nephrotoxicity in colorectal xenograft model; set-up: species or system Balb/c nude mice; conditions: mouse, 10 mg/kg
Method: To assay the four antibodies of the present disclosure for in vivo hepatotoxicity and nephrotoxicity, the same xenograft model as in Example 11 weighed every week. After six weeks of the experiment, GOT (glutamic oxaloacetic transaminase), GPT (glutamate pyruvate transaminase), and TBIL (total bilirubin) were measured for hepatotoxicity assay while BUN (blood urea nitrogen) and CRE (creatinine) were measured for nephrotoxicity assay. The results are depicted in FIGS. 27a and 27b.

recombinant monkey GRP94, sequence (Q4R520 22-804): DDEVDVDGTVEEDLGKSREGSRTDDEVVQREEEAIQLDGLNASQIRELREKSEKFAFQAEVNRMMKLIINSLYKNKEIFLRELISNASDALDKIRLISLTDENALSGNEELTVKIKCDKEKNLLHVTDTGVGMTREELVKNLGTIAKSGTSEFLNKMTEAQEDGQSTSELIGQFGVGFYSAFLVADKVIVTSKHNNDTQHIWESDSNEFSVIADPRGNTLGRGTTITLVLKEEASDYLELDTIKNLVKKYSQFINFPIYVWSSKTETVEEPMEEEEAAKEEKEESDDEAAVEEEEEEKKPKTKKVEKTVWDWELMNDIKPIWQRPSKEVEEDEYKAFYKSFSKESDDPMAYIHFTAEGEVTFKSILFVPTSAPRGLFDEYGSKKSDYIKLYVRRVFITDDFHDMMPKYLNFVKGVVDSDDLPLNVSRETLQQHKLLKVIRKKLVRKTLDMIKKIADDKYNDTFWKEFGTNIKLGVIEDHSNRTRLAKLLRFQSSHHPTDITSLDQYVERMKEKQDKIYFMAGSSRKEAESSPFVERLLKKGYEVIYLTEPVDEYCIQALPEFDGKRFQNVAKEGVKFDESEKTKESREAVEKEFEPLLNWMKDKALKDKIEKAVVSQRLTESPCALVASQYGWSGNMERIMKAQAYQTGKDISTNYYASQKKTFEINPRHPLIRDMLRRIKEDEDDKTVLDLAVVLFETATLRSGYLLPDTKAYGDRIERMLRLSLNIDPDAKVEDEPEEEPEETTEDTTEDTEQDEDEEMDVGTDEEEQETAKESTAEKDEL
T1 sequence (P14625 22-803): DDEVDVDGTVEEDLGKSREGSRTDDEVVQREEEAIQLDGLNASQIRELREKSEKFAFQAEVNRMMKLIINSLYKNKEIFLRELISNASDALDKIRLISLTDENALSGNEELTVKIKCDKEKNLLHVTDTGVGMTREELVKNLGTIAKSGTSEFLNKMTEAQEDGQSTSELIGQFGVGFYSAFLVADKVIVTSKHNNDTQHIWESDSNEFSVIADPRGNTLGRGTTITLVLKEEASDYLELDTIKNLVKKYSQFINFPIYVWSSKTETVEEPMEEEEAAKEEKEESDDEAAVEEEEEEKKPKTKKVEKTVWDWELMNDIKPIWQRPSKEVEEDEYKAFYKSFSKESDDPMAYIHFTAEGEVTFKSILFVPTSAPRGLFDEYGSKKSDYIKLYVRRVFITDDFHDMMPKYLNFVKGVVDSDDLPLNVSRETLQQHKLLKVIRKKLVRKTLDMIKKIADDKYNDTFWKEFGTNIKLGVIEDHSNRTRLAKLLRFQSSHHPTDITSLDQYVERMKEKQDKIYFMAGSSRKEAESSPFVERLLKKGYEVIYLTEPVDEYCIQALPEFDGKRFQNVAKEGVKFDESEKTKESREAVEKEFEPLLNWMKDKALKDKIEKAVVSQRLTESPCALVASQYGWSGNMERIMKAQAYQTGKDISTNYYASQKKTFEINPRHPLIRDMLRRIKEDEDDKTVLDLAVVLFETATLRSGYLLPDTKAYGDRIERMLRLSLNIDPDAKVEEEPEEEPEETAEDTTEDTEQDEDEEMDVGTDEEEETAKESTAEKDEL
T2 sequence (P14625 602-799): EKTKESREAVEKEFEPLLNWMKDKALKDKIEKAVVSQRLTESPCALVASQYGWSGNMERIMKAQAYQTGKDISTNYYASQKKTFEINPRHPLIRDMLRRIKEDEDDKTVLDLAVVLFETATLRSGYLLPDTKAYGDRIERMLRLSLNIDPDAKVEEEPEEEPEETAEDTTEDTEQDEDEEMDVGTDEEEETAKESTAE
recombinant rat GRP94, sequence (Q66HD0 22-804): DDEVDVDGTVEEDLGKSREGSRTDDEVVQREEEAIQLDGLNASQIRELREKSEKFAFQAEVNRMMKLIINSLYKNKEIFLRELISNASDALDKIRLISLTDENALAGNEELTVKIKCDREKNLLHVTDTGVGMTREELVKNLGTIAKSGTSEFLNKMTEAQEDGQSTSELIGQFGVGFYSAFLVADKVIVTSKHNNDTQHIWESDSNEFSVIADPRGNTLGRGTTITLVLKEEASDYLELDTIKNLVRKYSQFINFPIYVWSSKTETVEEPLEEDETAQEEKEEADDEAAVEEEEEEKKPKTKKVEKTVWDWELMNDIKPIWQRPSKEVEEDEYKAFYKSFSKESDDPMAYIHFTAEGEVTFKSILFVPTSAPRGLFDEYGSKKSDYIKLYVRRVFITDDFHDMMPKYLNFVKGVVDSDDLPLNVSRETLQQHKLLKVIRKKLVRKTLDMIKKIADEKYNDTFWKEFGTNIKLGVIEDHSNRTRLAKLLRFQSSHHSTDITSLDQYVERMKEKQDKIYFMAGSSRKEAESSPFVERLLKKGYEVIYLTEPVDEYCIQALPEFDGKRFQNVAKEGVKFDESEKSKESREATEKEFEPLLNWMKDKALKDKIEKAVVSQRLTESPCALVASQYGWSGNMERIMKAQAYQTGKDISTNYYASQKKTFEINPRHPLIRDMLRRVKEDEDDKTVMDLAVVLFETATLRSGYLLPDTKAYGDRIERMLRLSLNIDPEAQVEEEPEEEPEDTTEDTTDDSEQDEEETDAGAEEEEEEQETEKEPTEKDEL

| Molecule | binding to recombinant human GRP94 [1] | binding to recombinant rat GRP94 [2] | binding to recombinant monkey GRP94 [3] | cell index at the end point [4] | cell growth inhibitory ability [4] | cell index at the end point [5] | cell growth inhibitory ability [5] | cell index at the end point [6] | cell growth inhibitory ability [6] | binding to part 4 (Glu 602-Glu 799) [7] | tumor growth inhibition compared to PBS [8] | changes in body weight [9] | changes in serum levels of liver and kidney functional indices (GOT, GPT, TBIL, BUN, and CREA) [9] | inhibitory activity against tumor growth compared to the controls ([8]; controls PBS and hIgG) |
| --- | --- | --- | --- | --- | --- | --- | --- | --- | --- | --- | --- | --- | --- | --- |
| B5: anti-GRP94 human IgG antibody; CDRs SEQ ID NOS: 1 to 6, VH SEQ ID NO: 7, VL SEQ ID NO: 8 (antibody, V domains shown, Amino acid sequence of heavy chain variable of GRP94 B5; Amino acid sequence of light chain variable of GRP94 B5) VH: EVQLLESGGGLVQPGGSLRLSCAASGFTFSNYYMSWVRQAPGKGLEWVSGIYPNSGSTYYADSVKGRFTISRDNSKNTLYLQMNSLRAEDTAVYYCARDPLHPARFPFDYWGQGTLVTVSS VL: QSVLTQPPSASGTPGQRVTISCTGSSSNIGNNAVSWYQQLPGTAPKLLIYADSHRPSGVPDRFSGSKSGTSASLAISGLRSEDEADYYCGAWDASLNAYVFGGGTKLTVL | bind | bind | bind | 3.15±0.21 | excellent inhibitory activity | 2.32±0.02 | statistically significant; also recorded: excellent inhibitory activity | 2.69±0.04 | statistically significant; also recorded: excellent inhibitory activity | did not bind | 30% | no significant changes | no significant changes |  |
| 3G7: anti-GRP94 human IgG antibody; CDRs SEQ ID NOS: 25 to 30, VH SEQ ID NO: 31, VL SEQ ID NO: 32 (antibody, V domains shown, Amino acid sequence of heavy chain variable of GRP94 3G7; Amino acid sequence of light chain variable of GRP94 3G7) VH: EVQLLESGGGLVQPGGSLRLSCAASGFTFSNYSMSWVRQAPGKGLEWVSGIYYGSGNKYYADSVKGRFTISRDNSKNTLYLQMNSLRAEDTAVYYCAKNLASFDYWGQGTLVTVSS VL: QSVLTQPPSASGTPGQRVTISCSGSSSNIGSNSVNWYQQLPGTAPKLLIYSNSHRPSGVPDRFSGSKSGTSASLAISGLRSEDEADYYCGTWDSSLSGYVFGGGTKLTVL | bind | bind | bind | 3.40±0.16 | excellent inhibitory activity | 2.17±0.06 | statistically significant; also recorded: excellent inhibitory activity | 2.87±0.08 | statistically significant; also recorded: excellent inhibitory activity | did not bind | 33% | no significant changes | no significant changes |  |
| E5: anti-GRP94 human IgG antibody; CDRs SEQ ID NOS: 9 to 14, VH SEQ ID NO: 15, VL SEQ ID NO: 16 (antibody, V domains shown, Amino acid sequence of heavy chain variable of GRP94 E5; Amino acid sequence of light chain variable of GRP94 E5) VH: EVQLLESGGGLVQPGGSLRLSCAASGFTFSNYAMSWVRQAPGKGLEWVSGISSSSGSTYYADSVKGRFTTSRDNSKNTLYLQMNSLRAEDTAVYYCARDRHPFSPNWFDYWGQGTLVTVSS VL: QSVLTQPPSASGTPGQRVTISCSGSPSNIGSNTVTWYQQLPGTAPKLLIYADSHRPSGVPDRFSGSKSGTSASLAISGLRSEDEADYYCASWDDSLNGYVFGGGTKLTVL | bind | bind | bind | 3.33±0.31 | excellent inhibitory activity | 2.32±0.08 | statistically significant; also recorded: excellent inhibitory activity | 2.73±0.22 | statistically significant; also recorded: excellent inhibitory activity | did not bind |  | no significant changes | no significant changes | did not exhibit inhibitory activity |
